# Assay: soluble on expression in E. coli; label from the status in PepcDB or PDB records
row,Sequence,soluble on expression in E. coli
1,SNAKDVLGLTLLEKTLKERLNLKDAIIVSGDSDQSPWVKKEMGRAAVACMKKRFSGKNIVAVTGGTTIEAVAEMMTPDSKNRELLFVPARGGLGEDVKNQANTICAHMAEKASGTYRLLFVPGQLSQGAYSSIIEEPSVKEVLNTIKSASMLVHGIGEAKTMAQRRNTPLEDLKKIDDNDAVTEAFGYYFNADGEVVHKVHSVGMQLDDIDAIPDIIAVAGGSSKAEAIEAYFKKPRNTVLVTDEGAAKKLLRDE,soluble
2,GSSGSSGGYFDAHALAMDYRSLGFRECLAEVARYLSIIEGLDASDPLRVRLVSHLNNYASQREASGPSSG,soluble
3,MSDDARFQQLNCWLDSCLPELFVAEGWGEVPPAELIPASSDASFRRYFRWQGGDRSLVVMDAPPPQEDCRPFVKVAGLLAGAGVHVPRILAQDLENGFLLLSDLGRQTYLDVLHPGNADELFEPALDALIAFQKVDVAGVLPAYDEAVLRRELQLFPDWYLARHLGVELEGETLARWKRICDLLVRSALEQPRVFVHRDYMPRNLMLSEPNPGVLDFQDALHGPVTYDVTCLYKDAFVSWPEPRVHAALNRYWKKATWAGIPLPPSFEDFLRASDLMGVQRHLKVIGIFARICHRDGKPRYLGDVPRFFRYLETAVARRPELAELGELLASLPQGAEA,not soluble
4,MGKLFGTDGVRGIVNKELTPELVLKLSKAIGTFFGKNSKILVGRDVRAGGDMLVKIVEGGLLSVGVEVYDGGMAPTPALQYAVKTLGYDGGVVITASHNPAPYNGIKVVDKDGIEIRREKENEIEDLFFTERFNTIEWSSLTTEVKREDRVISTYVNGILSHVDIEKIKKKNYKVLIDPANSVGALSTPLVARALGCKIYTINGNLDPLFSARQPEPTFDSLKETAEVVKTLKVDLGVAHDGDADRAIFIDSEGRVQWGDRSGTLLSYWASVKNPKAIKKIVTAVSSSSLVEEYLSKYNIQVDWTKVGSVDIAHKVADENALAGFEENGGFMYPPHQYVRDGAMSFALMLELLANENVSSAELFDRLPKYYLVKTKVDLKPGLMVEEIYKKILEVYSTSSVKAITIDGVKIIGKDFWFLVRKSGTEPIIRIMAEAKDENVANNLVNELKKIVEGK,soluble
5,MGSDKIHHHHHHMAPEDWLRAETQGDIVALVHSHPGGQPYLSDVDRRLQVQSDLPWWLVCAGQVHKFRCVPHLTGRHYKHGVFDCYTLFRDAYHLAGIDMPDFHRDDDWWRHGDNLYLDNLETTGFYRVSAASAQPGDVLICCFGSSVPNHAAIYCGDGELLHHIPEQLSKRERYTDKWQRRTHSIWRHRAWRASAFTGICNDFAAASACR,not soluble
6,MSLRPPQTLSRGWGDDITWVQTYEEGLFYAQKSKKPLMVIHHLEDCQYSQALKKVFAQNEEIQEMAQNKFIMLNLMHETTDKNLSPDGQYVPRIMFVDPSLTVRADIAGRYSNRLYTYEPRDLPLLIENMKKALRLIQSELEGHHHHHH,soluble
7,EVPDYLCCNITLEIFRDPVISPSGVTYERAAILEHLKKVGKFDPITREKIDPANLVPNLAIKEAVAAYLEKHVWAYKMGC,soluble
8,MATSLQAAATFLQPAKIAASPSRNVHLRSNQTVGKSFGLDSSQARLTCSLHSDLKDFAGKCSDAAKIAGFALATSALVVSGAGAEGAPKRLTYDEIQSKTYMEVKGTGTANQCPTIDGGSETFSFKAGKYTGKKFCFEPTSFTVKADSVSKNAPPDFQNTKLMTRLTYTLDEIEGPFEVGSDGSVKFKEEDGIDYAAVTVQLPGGERVPFLFTVKQLEASGKPESFSGKFLVPSYRGSSFLDPKGRGGSTGYDNAVALPAGGRGDEEELSKENVKNTAASVGEITLKITKSKPETGEVIGVFESLQPSDTDLGAKVPKDVKIQGVWYGQIE,soluble
9,GLDNELSLVDGQDRTLTVQQWDTFLNGVFPLDRNRLTREWFHSGRAKYIVAGPGADEFEGTLELGYQIGGPGIQEVATFSVDVSGAEGGVAVSNAHGTVTGAAGGVLLRPFARLIASTGDSVTTYGEPWNMN,soluble
10,MGSDKIHHHHHHASSCGDECPVEQPYSVRVSVKDKNYLNISQFPQLSQVDENLPFRTYAGTLYYALYDASTGALIRESAVVSTEGEEKEYTLTFPGVPDGDYKLAVWGNLTTDYPAGILHQDGKEHTDIYVTSGDLHFSPDYQTEELTLERTKGKLLLLCSNFPSEITRIEQNVSHVYQSTDAGLNYSGSTQVDKNVPFTSVLETLLAPTSAEGHSKLTLTFYTGGTRASETPYLKLPVMEMDMRRNEITAVSIDYNTSEGIWEIKMFIRGEWITIHRLDIF,not soluble

# Source: the DeepSol protein solubility set
